As a reminder, the Km is the concentration of substrate that gives half-maximal velocity. By Vmax is commonly meant the rate approached at saturating substrate. What is called kcat is the number of substrate molecules converted per active site and unit of time at saturation. One may read the kcat/Km as the turnover number divided by the Michaelis constant. One may read the stoichiometry N as a count of units in the complex or per binding partner.

Data on seven molecules can be found in paper PMC3412864 (PLoS ONE, 2012).

Series [1] has as its target T1, Gh-ChrR (Novacetimonas hansenii, UniProt D5QFC5).
T1 construct: gene GXY_09224; full length (193 native residues) plus C-terminal 6xHis tag kept; E. coli BL21(DE3), codon-optimised
The experiment in a line: X-ray crystal structure, […] Å; absorbance stoichiometry. It is filed as binding. The note with it: non-covalent, one FMN per monomer, co-purified.

The target in series [2] is T1, Gh-ChrR. In words: chromate reduction rate. Format: biochemical. The note with it: 200 µM NADPH, 5 µM enzyme, 50 mM Tris-HCl, 100 mM NaCl, pH 7.4.
Series [3] addresses T1, Gh-ChrR. In words: initial velocities, ordered bireactant model with substrate inhibition. It is filed as biochemical. The settings on record: competitive with chromate, dead-end FMN-enzyme-NADH complex. The source says: initial velocities, ordered bireactant model with substrate inhibition on Gh-ChrR | Ki is the dissociation constant of the dead-end product of FMN-Gh-ChrR-NADH

Substrate in the series “purified protein”: [O]=[Cr](=[O])([OH])[OH]
In words: purified protein. The settings on record: 100 µM NADH, 5 µM enzyme, 50 mM Tris-HCl, 100 mM NaCl, pH 7.4, 37°C, aerobic.

Substrate in series [4]: NC(=O)C1=CN([C@@H]2O[C@H](COP(=O)(O)OP(=O)(O)OC[C@H]3O[C@@H](n4cnc5c(N)ncnc54)[C@H](O)[C@@H]3O)[C@@H](O)[C@H]2O)C=CC1
In words: initial velocities, ordered bireactant model with substrate inhibition. Format: biochemical, Novacetimonas hansenii. The note with it: varied chromate and NADH, Tris-HCl pH 7.4. The source says: initial velocities, ordered bireactant model with substrate inhibition on […] | KmB is the Michaelis-Menten constant of NADH

Series [5] deals with the molecule itself. The experiment in a line: crystal structure; hanging-drop vapor diffusion at room temperature; protein ~9 mg/mL in 20 mM Tris-HCl, 150 mM NaCl, pH 7.4; precipitant 0.5% PEG4000, 10% isopropanol, 0.1 M HEPES pH 7.5; 2.25 Å; four monomers in the asymmetric unit.

For `Cc1cc2nc3c(=O)[nH]c(=O)nc-3n(C[C@H](O)[C@H](O)[C@H](O)COP(=O)(O)O)c2cc1C` [FMN], on Gh-ChrR [1], the “X-ray crystal structure, 2.25 Å; absorbance stoichiometry” value is “Gh-ChrR crystallized with one molecule of FMN associated with each protein monomer”.

`NC(=O)C1=CN([C@@H]2O[C@H](COP(=O)(O)OP(=O)(O)OC[C@H]3O[C@@H](n4cnc5c(N)ncnc54)[C@H](OP(=O)(O)O)[C@@H]3O)[C@@H](O)[C@H]2O)C=CC1` [NADPH]: the chromate reduction rate result at Gh-ChrR [2] is “Both NADH and NADPH support maximal chromate reduction by Gh-ChrR”.

Molecule `NC(=O)C1=CN([C@@H]2O[C@H](COP(=O)(O)OP(=O)(O)OC[C@H]3O[C@@H](n4cnc5c(N)ncnc54)[C@H](O)[C@@H]3O)[C@@H](O)[C@H]2O)C=CC1` [NADH] displayed a Ki at Gh-ChrR [3] of 3.5 ± 0.7 µM.

B1: Gluconacetobacter hansenii chromate reductase (Gh-ChrR) (enzyme, Gluconacetobacter hansenii ATCC 23769)
chain: MTTTSPLHFVTLLGSLRKASFNAAVARALPEIAPEGIAITPLGSIGTFPHYSQDVQEEGFPAPVLTMAQQIATADAVVIVTPEYNYSVPGVLKNAIDWLSRVSPQPLAGKPVALVTASPGMIGGARAQYHLRQSLVFLDAYVLNRPEAMIGQVTGKVDAQTLELSDVATREFLARQLDALAALARTLSPRAIT
notes: Gh-ChrR, NAD(P)H-dependent FMN reductase from Gluconacetobacter hansenii ATCC 23769 (ZP_06834583); 193 native residues; codon-optimised synthetic gene in pJexpress411; Monomer 21.3 kDa (193 native residues plus a six-residue C-terminal poly-histidine tag); In the crystal 5-6 N-terminal and 7-9 C-terminal residues are not seen; also called putative chromate reductase; source: E. coli BL21(DE3), …
B1: in “purified protein”, the Km is 240 ± 70 µM, the maximum rate (Vmax) stood at 0.75 µmol/min/mg, the catalytic constant (kcat) amounted to 0.25 s⁻¹ and the kcat/Km was determined as 1000 M⁻¹ s⁻¹. In series [4], the Km is on record as 7 ± 1 µM. The “stoichiometry N” value in series [5] is 4.

B2: Gh-ChrR (Novacetimonas hansenii ATCC 23769; S118A) (protein)
chain: MTTTSPLHFVTLLGSLRKASFNAAVARALPEIAPEGIAITPLGSIGTFPHYSQDVQEEGFPAPVLTMAQQIATADAVVIVTPEYNYSVPGVLKNAIDWLSRVSPQPLAGKPVALVTAAPGMIGGARAQYHLRQSLVFLDAYVLNRPEAMIGQVTGKVDAQTLELSDVATREFLARQLDALAALARTLSPRAIT
Take B2: in the series “purified protein”, the Michaelis-Menten constant (Km) came to 600 ± 20 µM, the Vmax stood at 0.9 µmol/min/mg, the kcat is 0.3 s⁻¹ and the kcat/Km was determined as 500 M⁻¹ s⁻¹.

B3: Gh-ChrR (Novacetimonas hansenii ATCC 23769; N85A) (protein)
chain: MTTTSPLHFVTLLGSLRKASFNAAVARALPEIAPEGIAITPLGSIGTFPHYSQDVQEEGFPAPVLTMAQQIATADAVVIVTPEYAYSVPGVLKNAIDWLSRVSPQPLAGKPVALVTASPGMIGGARAQYHLRQSLVFLDAYVLNRPEAMIGQVTGKVDAQTLELSDVATREFLARQLDALAALARTLSPRAIT
As for B3, in the series “purified protein”, the Km was 600 ± 100 µM, the maximal velocity (Vmax) was determined as 0.16 µmol/min/mg, the kcat amounted to 0.053 s⁻¹ and the kcat/Km was 90 M⁻¹ s⁻¹.

B4: Gh-ChrR (Novacetimonas hansenii ATCC 23769; R101A) (protein)
chain: MTTTSPLHFVTLLGSLRKASFNAAVARALPEIAPEGIAITPLGSIGTFPHYSQDVQEEGFPAPVLTMAQQIATADAVVIVTPEYNYSVPGVLKNAIDWLSAVSPQPLAGKPVALVTASPGMIGGARAQYHLRQSLVFLDAYVLNRPEAMIGQVTGKVDAQTLELSDVATREFLARQLDALAALARTLSPRAIT
On to B4, for which, in “purified protein”, the Km is 1900 ± 600 µM, the maximal velocity (Vmax) was 0.24 µmol/min/mg, the turnover number (kcat) worked out at 0.08 s⁻¹ and the kcat/Km was 40 M⁻¹ s⁻¹.
